Data as given in patent US20210162009A1 (MEDICAL COLLEGE OF WISCONSIN, published 2021).

Target: T1, wild-type CXCL12 (Homo sapiens (Human), UniProt P48061 22-89)
T1 construct: also called CXCL12WT; WT
Assay: 125I-CXCL12 displacement from CXCR4
Method: A) The affinity of CXCL12 variants for CXCR4 was determined by ¹²⁵I-CXCL12 displacement. […] C) Intracellular calcium mobilization of cells stimulated by 10 nM CXCL12 variants was measured in the presence or absence of the Gαi inhibitor, pertussis toxin (PTX). From Drury, PNAS, 2011.

T1 sequence (P48061 22-89 limits assumed): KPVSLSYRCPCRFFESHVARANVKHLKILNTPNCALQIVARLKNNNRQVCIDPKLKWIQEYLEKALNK

B1: CXC chemokine receptor 4 (CXCR4) (receptor, UniProt P61073 1-352, looked up)
chain: MEGISIYTSDNYTEEMGSGDYDSMKEPCFREENANFNKIFLPTIYSIIFLTGIVGNGLVILVMGYQKKLRSMTDKYRLHLSVADLLFVITLPFWAVDAVANWYFGNFLCKAVHVIYTVNLYSSVLILAFISLDRYLAIVHATNSQRPRKLLAEKVVYVGVWIPALLLTIPDFIFANVSEADDRYICDRFYPNDLWVVVFQFQHIMVGLILPGIVILSCYCIIISKLSHSKGHQKRKALKTTVILILAFFACWLPYYIGISIDSFILLEIIKQGCEFENTVHKWISITEALAFFHCCLNPILYAFLGAKFKTSAQHALTSVSRGSSLKILSKGKRGGHSSVSTESESSSFHSS
- Kd: 25 nM
